According to patent US6764680:

Assays:
[1] = molecular target: rabbit antiserum against COMBINED LOOP + CTP37, rabbit # 4166; experiment: competition immunoassay, peptide competitor against rabbit antiserum 4166; legend: ++ = ED 50 < 250 ng
[2] = molecular target: rabbit antiserum against COMBINED LOOP + CTP37, rabbit # 4165; experiment: competition immunoassay, peptide competitor against rabbit antiserum 4165; legend: ++ = ED 50 < 250 ng
[3] = molecular target: rabbit antiserum against COMBINED LOOP + CTP37, rabbit # 4173; experiment: competition immunoassay, peptide competitor against rabbit antiserum 4173; legend: ++ = ED 50 < 250 ng
[4] = molecular target: rabbit antiserum against CTP37, rabbit # 4164; experiment: competition immunoassay, peptide competitor against rabbit antiserum 4164; legend: ++ = ED 50 < 250 ng

Measured: ED50

CDDPRFQDSSSSKAPPPSLPS [hCG-CTP21 (residues 130-150 of the beta subunit of hCG)]
10 to 250 ng: all assays above
